Consider six molecules from patent US20140363428A1 (Chugai, published 2014).

Assay [1] has as its target T1, biotinylated GPC3 peptide (chemically-synthetized peptide having a human glypican 3 protein-derived sequence, … (human, C-terminal Lys is biotinylated)).
T1 construct: Synthetic peptide immobilized on Sensor chip SA through biotin-streptavidin
T1 peptide: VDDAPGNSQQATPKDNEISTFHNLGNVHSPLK
The assay can be described thus: SPR (Biacore T200), capture of human IgE on Sensor chip SA carrying the biotinylated GPC3 peptide, 37 degrees C.

In assay [2] the target is T2, human IgE (human).
T2 construct: Recombinant antigen; variable region derived from an anti-human glypican3 antibody; also called hIgE
Kind of assay: SPR Biacore T200, 37 C; pH 5.8, 1.2 mM Ca.
Procedure: (§1) Human IgE was immobilized onto the chip by injecting it at an appropriate concentration so as to be trapped by the biotinylated GPC3 peptide. […] Then, 10 mmol/L glycine-HCl (pH 1.5) was injected to regenerate the sensor chip. The interaction was always measured at 37 degrees C. The measurement result was analyzed by curve fitting using Biacore T200 Evaluation Software (GE Healthcare) to calculate the association rate constant ka (1/Ms) and dissociation rate constant kd (1/s). The dissociation constant KD (M) was calculated from the above-described constants.

The target of assay [3] is T2, human IgE. The assay can be described thus: SPR Biacore T200, 37 C; pH 5.8, 3 microM Ca.
Procedure: as §1
Assay [4] deals with T2, human IgE. Kind of assay: SPR Biacore T200, 37 C; ratio of KD, pH dependency.
Procedure: as §1
The target in assay [5] is T2, human IgE. Kind of assay: SPR Biacore T200, 37 C; ratio of KD, pH/Ca dependency.
Procedure: as §1
Assay [6] addresses T2, human IgE. Kind of assay: SPR Biacore T200, 37 C, hIgE captured via biotinylated GPC3 peptide, Ab analyte; pH 7.4, 1.2 mM Ca.
Procedure: as §1
In assay [7] the target is T3, human IgA (human).
T3 construct: Recombinant antigen; variable region derived from an anti-human IL-6 receptor antibody; also called hIgA
T3 sequence (VH, as listed by the source): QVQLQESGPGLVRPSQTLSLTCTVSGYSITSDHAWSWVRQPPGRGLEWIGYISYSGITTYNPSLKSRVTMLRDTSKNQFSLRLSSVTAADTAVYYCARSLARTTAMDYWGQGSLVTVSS
The assay can be described thus: SPR Biacore T200, 37 C, Ab on Protein A/G, hIgA analyte; pH 7.4, 1.2 mM Ca; 1:1 binding model; pH 7.4, 1.2 mM Ca; 1:1 binding model.
Procedure: (§2) The antibodies isolated as described in 8-2 were assessed for their hIgA-binding activity (dissociation constant KD (M)) using Biacore T200 (GE Healthcare). Running buffers used in the measurement were 0.05% tween20/20 mmol/L ACES/150 mmol/L NaCl (pH 7.4 or 5.8) containing 3 microM or 1.2 mM CaCl₂.
(§3) The antibody was allowed to bind to Sensor chip CM5 (GE Healthcare) immobilized with a suitable amount of recombinant Protein A/G (Thermo Scientific) by the amino coupling method. Then, an appropriate concentration of hIgA (described in 8-1) was injected as an analyte to allow interaction with the antibody on the sensor chip. The measurement was carried out at 37 degrees C. After the measurement, 10 mmol/L glycine-HCl (pH 1.5) was injected to regenerate the sensor chip. The dissociation constant KD (M) was calculated from the measurement result by curve fitting analysis and equilibrium parameter analysis using Biacore T200 Evaluation Software (GE Healthcare).

Assay [8] deals with T3, human IgA. Kind of assay: SPR Biacore T200, 37 C; pH 7.4, 3 microM Ca; steady state affinity.
Procedure: as §2, §3
Assay [9] concerns the target T3, human IgA. Kind of assay: SPR Biacore T200, 37 C, Ab on Protein A/G, hIgA analyte; pH 7.4, 1.2 mM Ca; 1:1 binding model.
Procedure: as §2, §3
The target in assay [10] is T3, human IgA. Kind of assay: SPR Biacore T200, 37 C; pH 5.8, 1.2 mM Ca; steady state affinity.
Procedure: as §2, §3
For assay [11], the target named is T3, human IgA. The assay can be described thus: SPR Biacore T200, 37 C; pH 5.8, 3 microM Ca; steady state affinity.
Procedure: as §2, §3
In assay [12] the target is T4, soluble human FcRn (heterodimer of FcRn alpha chain and beta2-microglobulin) (human, UniProt P55899 24-297; P61769 21-119).
T4 construct: Signal regions are part of the expressed constructs; also called hFcRn
T4 sequence (P55899 24-297 limits assumed, chain 1 of 2): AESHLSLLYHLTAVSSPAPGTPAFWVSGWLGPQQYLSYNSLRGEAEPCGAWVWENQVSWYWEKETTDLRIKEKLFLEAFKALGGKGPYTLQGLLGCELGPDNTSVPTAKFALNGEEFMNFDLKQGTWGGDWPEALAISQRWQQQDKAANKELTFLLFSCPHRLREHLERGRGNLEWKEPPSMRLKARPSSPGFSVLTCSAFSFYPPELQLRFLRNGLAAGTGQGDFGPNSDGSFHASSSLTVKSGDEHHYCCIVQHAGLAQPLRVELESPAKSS
T4 sequence (P61769 21-119 limits assumed, chain 2 of 2): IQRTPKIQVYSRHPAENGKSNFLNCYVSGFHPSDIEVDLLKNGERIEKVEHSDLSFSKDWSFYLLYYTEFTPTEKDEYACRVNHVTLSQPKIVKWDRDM
The assay can be described thus: statement in Example 3.

Assay [13] concerns the target T5, soluble human FcRn (human, UniProt P55899 24-297; P61769 21-119).
T5 construct: Heterodimer of alpha chain and beta2-microglobulin; also called hFcRn
Kind of assay: SPR (Biacore), pH 6.0; Table 26 series (4-5), a different experiment from Table 25; pH 6.0.

Assay [14] has as its target T5, soluble human FcRn. Kind of assay: SPR (Biacore), pH 6.0.
Assay [15] has as its target T4, soluble human FcRn (heterodimer of FcRn …). The assay can be described thus: SPR, hFcRn at pH 7.0.

Where a chain is given by its changes, count along the chain named. Names and notes keep the numbering of the source.

T5 sequence (P55899 24-297 limits assumed, chain 1 of 2): as the sequence (P55899 24-297 limits assumed, chain 1 of 2) above
T5 sequence (P61769 21-119 limits assumed, chain 2 of 2): as the sequence (P61769 21-119 limits assumed, chain 2 of 2) above

B1: human IgE (recombinant; variable region derived from an anti-human glypican3 antibody) (other)
heavy: QVQLVQSGAEVKKPGASVKVSCKASGYTFTDYEMHWVRQAPGQGLEWMGALDPKTGDTAYSQKFKGRVTLTADKSTSTAYMELSSLTSEDTAVYYCTRFYSYTYWGQGTLVTVSSASTQSPSVFPLTRCCKNIPSNATSVTLGCLATGYFPEPVMVTWDTGSLNGTTMTLPATTLTLSGHYATISLLTVSGAWAKQMFTCRVAHTPSSTDWVDNKTFSVCSRDFTPPTVKILQSSCDGGGHFPPTIQLLCLVSGYTPGTINITWLEDGQVMDVDLSTASTTQEGELASTQSELTLSQKHWLSDRTYTCQVTYQGHTFEDSTKKCADSNPRGVSAYLSRPSPFDLFIRKSPTITCLVVDLAPSKGTVNLTWSRASGKPVNHSTRKEEKQRNGTLTVTSTLPVGTRDWIEGETYQCRVTHPHLPRALMRSTTKTSGPRAAPEVYAFATPEWPGSRDKRTLACLIQNFMPEDISVQWLHNEVQLPDARHSTTQPRKTKGSGFFVFSRLEVTRAEWEQKDEFICRAVHEAASPSQTVQRAVSVNPGK
light: DVVMTQSPLSLPVTPGEPASISCRSSQSLVHSNRNTYLHWYLQKPGQSPQLLIYKVSNRFSGVPDRFSGSGSGTDFTLKISRVEAEDVGVYYCSQNTHVPPTFGQGTKLEIKRTVAAPSVFIFPPSDEQLKSGTASVVCLLNNFYPREAKVQWKVDNALQSGNSQESVTEQDSKDSTYSLSSTLTLSKADYEKHKVYACEVTHQGLSSPVTKSFNRGEC
notes: Used as antigen; also called hIgE
As for B1, the binding result in [1] was “binds”.

B2: clone 278 (antibody, human IgG1, kappa, V domains shown)
VH: QSLEESGGRLVTPGTPLTLTCTASGFSLSSYHMSWVRQAPGKGLEWIGVINSAGNTYYASWAKGRFTVSKTSTTVDLNLTSLTTEDTATYFCARYVFSSGSHDIWGPGTLVTVSS
VL: AYDMTQTPASVEVAVGGTVTIKCQASQSIGSWLAWYQQKPGQPPKELIYGTSTLESGVPSRFIGSGSGTEFTLTISGVECADAATYYCQQGYSEDNIDNAFGGGTEVVVKR
notes: human IgG1 heavy chain constant region and human light chain constant region
In the assay with human IgE [2], B2 had a Kd of 2000 nM, an off-rate (koff) of 0.23 s⁻¹ and an association rate constant (kon) of 120000 M⁻¹ s⁻¹. In the assay with human IgE [3], the Kd is 3900 nM, the koff came to 0.24 s⁻¹ and the kon was 62000 M⁻¹ s⁻¹. In addition, the “KD (pH 5.8, 1.2 mM Ca)/KD (pH 7.4, 1.2 mM Ca)” value with human IgE [4] was found to be 842. For the same molecule, in the assay with human IgE [5], the “KD (pH 5.8, 3 microM Ca)/KD (pH 7.4, 1.2 mM Ca)” value is 1640. In the assay with human IgE [6], this molecule gave a Kd of 2.4 nM, a koff of 0.0036 s⁻¹ and an on-rate (kon) of 1.5e+06 M⁻¹ s⁻¹.

B3: GA2-IgG1 (antibody, V domains shown)
VH: QVQLVQSGAEVKKPGSSVKVSCKASGGTFSSYAISWVRQAPGQGLEWMGGIIPIFGTANYAQKFQGRVTITADESTSTAYMELSSLRSEDTAVYYCARPRWETAISSDAFDIWGQGTMVTVSS
VL: DIQMTQSPSSLSASVGDRVTITCRASQSISDDLNWYQQKPGKAPKLLIYEASNLQSGVPSRFSGSGSGTDFTLTISSLQPEDFATYYCQQHSSSPLTFGQGTKVEIKR
For B3, in the assay with human IgA [7], the association rate constant (kon) is 400000 M⁻¹ s⁻¹. The dissociation constant Kd is 6700 nM with human IgA [8], 39 nM with human IgA [9], 4000 nM in the assay with human IgA [10] and 5000 nM in the assay with human IgA [11].

B4: Fv-4-F946 (antibody, human IgG1, kappa)
heavy: QVQLQESGPGLVKPSETLSLTCAVSGHSISHDHAWSWVRQPPGEGLEWIGFISYSGITNYNPSLQGRVTISRDNSKNTLYLQMNSLRAEDTAVYYCARSLARTTAMDYWGEGTLVTVSSASTKGPSVFPLAPSSKSTSGGTAALGCLVKDYFPEPVTVSWNSGALTSGVHTFPAVLQSSGLYSLSSVVTVPSSSLGTQTYICNVNHKPSNTKVDKKVEPKSCDKTHTCPPCPAPELLGGPSVFLFPPKPKDVLYISRTPEVTCVVVDVSHEDPEVKFNWYVDGVEVHNAKTKPREEQYNSTYRVVSVLQVLHADWLNGKEYKCKVSNKALPAPIEKTISKAKGQPREPQVYTLPPSRDELTKNQVSLTCLVKGFYPSDIAVEWESNGQPENNYKTTPPVLDSDGSFFLYSKLTVDKSRWQQGNVFSCSVMHEALHYHVTQKSLSLSP
light: DIQMTQSPSSLSASVGDSVTITCQASTDISSHLNWYQQKPGKAPELLIYYGSHLLSGVPSRFSGSGSGTDFTFTISSLEAEDAATYYCGQGNRLPYTFGQGTKVEIERTVAAPSVFIFPPSDEQLKSGTASVVCLLNNFYPREAKVQWKVDNALQSGNSQESVTEQDSKDSTYSLSSTLTLSKADYEKHKVYACEVTHQGLSSPVTKSFNRGEC
notes: VH3-F946 and VL3-CK
B4: the binding result in assay [12] is on record as “binds”.

B5: Fv-4-LS (antibody, human IgG1, kappa)
heavy: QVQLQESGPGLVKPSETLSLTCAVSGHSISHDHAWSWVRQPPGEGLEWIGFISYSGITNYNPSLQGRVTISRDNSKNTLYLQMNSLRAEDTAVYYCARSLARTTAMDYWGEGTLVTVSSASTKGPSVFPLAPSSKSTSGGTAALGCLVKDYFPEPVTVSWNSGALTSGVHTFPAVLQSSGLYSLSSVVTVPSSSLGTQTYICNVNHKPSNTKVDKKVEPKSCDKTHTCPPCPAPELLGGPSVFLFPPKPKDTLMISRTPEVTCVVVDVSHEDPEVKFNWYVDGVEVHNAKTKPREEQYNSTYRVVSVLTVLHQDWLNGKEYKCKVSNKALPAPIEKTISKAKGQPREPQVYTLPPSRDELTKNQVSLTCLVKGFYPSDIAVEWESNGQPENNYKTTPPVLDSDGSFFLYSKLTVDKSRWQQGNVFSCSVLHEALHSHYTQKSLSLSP
light: B4 light
notes: also called F22
B5: the Kd in the assay with soluble human FcRn [13] is 71 nM; with soluble human FcRn [14] it was 160 nM.

B6: Fv-4-F1080 (antibody, human IgG1, kappa, name in EU numbering)
heavy: B4 heavy with V252T, Q309T, A313Q, S426N, V438Y
light: B4 light
modifications: additional N-glycosylation found by SDS-PAGE (S424N)
As to B6, the binding result in [15] is given as “binds”.
